Assay results reported in publication PMC9634612, “Rapid and efficient room-temperature serial synchrotron crystallography using the CFEL TapeDrive” (IUCrJ, 2022).

Target: the molecule itself
Assay: crystal structure; room-temperature (293 K) serial synchrotron crystallography with the CFEL TapeDrive, 2.3 Å, space group I222, one monomer in the asymmetric unit, tetramer generated by symmetry; UOX with 5PMUA bound

B1: Aspergillus flavus urate oxidase (enzyme)
chain: MSAVKAARYGKDNVRVYKVHKDEKTGVQTVYEMTVCVLLEGEIETSYTKADNSVIVATDSIKNTIYITAKQNPVTPPELFGSILGTHFIEKYNHIHAAHVNIVCHRWTRMDIDGKPHPHSFIRDSEEKRNVQVDVVEGKGIDIKSSLSGLTVLKSTNSQFWGFLRDEYTTLKETWDRILSTDVDATWQWKNFSGLQEVRSHVPKFDATWATAREVTLKTFAEDNSASVQATMYKMAEQILARQQLIETVEYSLPNKHYFEIDLSWHKGLQNTGKNAEVFAPQSDPNGLIKCTVGRSSLKSKL
notes: Urate oxidase of Aspergillus flavus, untagged, from a codon-optimized synthetic cDNA in pET24b; One monomer in the asymmetric unit; the tetramer is generated by crystal symmetry; also called UOX; cofactor-free A. flavus urate oxidase
With B1 the “stoichiometry N” value was 4.
